Experiments:
Test in all cases: purified protein, by the assay type
Conditions in all cases: other: apparent Km of the peptide, AdoMet saturating 448 μM, 1 nM PRDM9, 10 mM Tris-HCl pH 8.5, 0.01% Triton X-100, 10 mM DTT, 20 min, 23 °C, mean ± S.D., n = 3, NA = not active
[1] = substrate: CC(C)C[C@H](NC(=O)[C@H](CCC(N)=O)NC(=O)[C@H](CCCCN)NC(=O)[C@H](CCCNC(=N)N)NC(=O)[C@@H]1CCCN1C(=O)[C@H](C)NC(=O)[C@H](CCCCN)NC(=O)CNC(=O)CNC(=O)[C@@H](NC(=O)[C@H](CO)NC(=O)[C@H](CCCCN)NC(=O)[C@H](CCCNC(=N)N)NC(=O)[C@H](C)NC(=O)[C@@H](NC(=O)[C@H](CCC(N)=O)NC(=O)[C@H](CCCCN(C)C)NC(=O)[C@@H](NC(=O)[C@H](CCCNC(=N)N)NC(=O)[C@H](C)N)[C@@H](C)O)[C@@H](C)O)[C@@H](C)O)C(=O)N[C@@H](C)C(=O)N[C@H](C(=O)N[C@@H](CCCCN)C(=O)N[C@@H](C)C(=O)N[C@@H](C)C(=O)O)[C@@H](C)O
Procedure: (§1) To avoid the binding capacity limitation of scintillation proximity assay plates, a membrane-based assay was used for all kinetic studies. […] Apparent Km values were determined for AdoMet in reactions with each peptide by varying the AdoMet concentration. The highest concentration of AdoMet was 448 μM (5 μM [^3H]AdoMet plus 443 μM cold AdoMet). Dilutions of AdoMet were then made with assay buffer. The peptide concentration was kept at 5 μM. The assay buffer was 10 mM Tris-HCl, pH 8.5, 0.01% Triton X-100, and 10 mM DTT in a final volume of 20 μl. The reactions were started by addition of 1 nM PRDM9. The reaction mixtures were incubated for 20 min at 23 °C and quenched by adding 20 μl of 7.5 M guanidinium hydrochloride. 10 μl of quenched reaction mixture was spotted onto streptavidin-coated membrane squares (SAM2® Biotin capture membrane, Promega). The membrane was washed three times in 2 M NaCl for 2 min each time, then in water three times for 30 s each. The membrane was dried at 50 °C for 1 h and then each spotted square was cut from the membrane and placed in a scintillation vial. The amount of methylated peptide was quantified by tracing the radioactivity (cpm) as counted by a TriCarb liquid scintillation counter (PerkinElmer Life Sciences).

[2] = substrate: CC(C)[C@H](NC(=O)CNC(=O)CNC(=O)[C@@H](NC(=O)[C@H](C)NC(=O)[C@@H]1CCCN1C(=O)[C@H](C)NC(=O)[C@H](CO)NC(=O)[C@H](CCCCN)NC(=O)[C@H](CCCNC(=N)N)NC(=O)[C@H](C)NC(=O)[C@H](C)NC(=O)[C@H](CCCCN)NC(=O)[C@@H](NC(=O)[C@H](C)N)[C@@H](C)O)[C@@H](C)O)C(=O)N[C@@H](CCCCN(C)C)C(=O)N[C@@H](CCCCN)C(=O)N1CCC[C@H]1C(=O)N[C@@H](Cc1c[nH]cn1)C(=O)N[C@@H](CCCNC(=N)N)C(=O)N[C@@H](Cc1ccc(O)cc1)C(=O)N[C@@H](CCCNC(=N)N)C(=O)N1CCC[C@H]1C(=O)NCC(=O)O
Procedure: as §1

[3] = substrate: CC(C)[C@H](NC(=O)CNC(=O)CNC(=O)[C@@H](NC(=O)[C@H](C)NC(=O)[C@@H]1CCCN1C(=O)[C@H](C)NC(=O)[C@H](CO)NC(=O)[C@H](CCCCN)NC(=O)[C@H](CCCNC(=N)N)NC(=O)[C@H](C)NC(=O)[C@H](C)NC(=O)[C@H](CCCCN)NC(=O)[C@@H](NC(=O)[C@H](C)N)[C@@H](C)O)[C@@H](C)O)C(=O)N[C@@H](CCCCN)C(=O)N[C@@H](CCCCN)C(=O)N1CCC[C@H]1C(=O)N[C@@H](Cc1c[nH]cn1)C(=O)N[C@@H](CCCNC(=N)N)C(=O)N[C@@H](Cc1ccc(O)cc1)C(=O)N[C@@H](CCCNC(=N)N)C(=O)N1CCC[C@H]1C(=O)NCC(=O)O
Procedure: as §1

[4] = substrate: CNCCCC[C@H](NC(=O)[C@@H](NC(=O)CNC(=O)CNC(=O)[C@@H](NC(=O)[C@H](C)NC(=O)[C@@H]1CCCN1C(=O)[C@H](C)NC(=O)[C@H](CO)NC(=O)[C@H](CCCCN)NC(=O)[C@H](CCCNC(=N)N)NC(=O)[C@H](C)NC(=O)[C@H](C)NC(=O)[C@H](CCCCN)NC(=O)[C@@H](NC(=O)[C@H](C)N)[C@@H](C)O)[C@@H](C)O)C(C)C)C(=O)N[C@@H](CCCCN)C(=O)N1CCC[C@H]1C(=O)N[C@@H](Cc1c[nH]cn1)C(=O)N[C@@H](CCCNC(=N)N)C(=O)N[C@@H](Cc1ccc(O)cc1)C(=O)N[C@@H](CCCNC(=N)N)C(=O)N1CCC[C@H]1C(=O)NCC(=O)O
Procedure: as §1

[5] = substrate: CNCCCC[C@H](NC(=O)[C@@H](NC(=O)[C@H](CCCNC(=N)N)NC(=O)[C@H](C)N)[C@@H](C)O)C(=O)N[C@@H](CCC(N)=O)C(=O)N[C@H](C(=O)N[C@@H](C)C(=O)N[C@@H](CCCNC(=N)N)C(=O)N[C@@H](CCCCN)C(=O)N[C@@H](CO)C(=O)N[C@H](C(=O)NCC(=O)NCC(=O)N[C@@H](CCCCN)C(=O)N[C@@H](C)C(=O)N1CCC[C@H]1C(=O)N[C@@H](CCCNC(=N)N)C(=O)N[C@@H](CCCCN)C(=O)N[C@@H](CCC(N)=O)C(=O)N[C@@H](CC(C)C)C(=O)N[C@@H](C)C(=O)N[C@H](C(=O)N[C@@H](CCCCN)C(=O)N[C@@H](C)C(=O)N[C@@H](C)C(=O)O)[C@@H](C)O)[C@@H](C)O)[C@@H](C)O
Procedure: as §1

B1: PRDM9 (Homo sapiens) (protein)
chain: SEPQDDDYLYCEMCQNFFIDSCAAHGPPTFVKDSAVDKGHPNRSALSLPPGLRIGPSGIPQAGLGVWNEASDLPLGLHFGPYEGRITEDEEAANNGYSWLITKGRNCYEYVDGKDKSWANWMRYVNCARDDEEQNLVAFQYHRQIFYRTCRVIRPGCELLVWYGDEYGQELGIKWGSKWKKELMAGREPKP
- Km [1]: 3 ± 1 µM
- Km [2]: 2.5 ± 0.3 µM
- Km [3]: 1.5 ± 0.2 µM
- Km [4]: 2.4 ± 0.4 µM
- Km [5]: 1 ± 0.2 µM
